According to US20260258141A1 (BIOCYTOGEN PHARMACEUTICALS BEIJING, published 2026):
Where a chain is given by its changes, count along the chain named. Each block holds one binder with its values, some of them ahead of it.

Columns and labels:
[1] = target: T1, human IGF1R (insulin-like growth factor 1 receptor) on cells (human, UniProt P08069 31-1367); assay: cell-based or functional assay
[2] = target: T1, human IGF1R (insulin-like growth factor …); assay: cell-based or functional assay; remark: listed apart in the source
[3] = target: T1, human IGF1R (insulin-like growth factor …); assay: cell-based or functional assay; remark: listed apart in the source
[4] = target: T1, human IGF1R (insulin-like growth factor …); assay: cell-based or functional assay; remark: listed apart in the source
[5] = target: T2, human insulin receptor INSR on cells (human, UniProt P06213 28-1382); assay: flow cytometry on CHO-S-hINSR cells
T2 construct: Expressed on CHO-S cells; also called hINSR; CHO-S-hINSR cells
T2 sequence (P06213 other isoform, or with tags, fused parts or gaps limits assumed): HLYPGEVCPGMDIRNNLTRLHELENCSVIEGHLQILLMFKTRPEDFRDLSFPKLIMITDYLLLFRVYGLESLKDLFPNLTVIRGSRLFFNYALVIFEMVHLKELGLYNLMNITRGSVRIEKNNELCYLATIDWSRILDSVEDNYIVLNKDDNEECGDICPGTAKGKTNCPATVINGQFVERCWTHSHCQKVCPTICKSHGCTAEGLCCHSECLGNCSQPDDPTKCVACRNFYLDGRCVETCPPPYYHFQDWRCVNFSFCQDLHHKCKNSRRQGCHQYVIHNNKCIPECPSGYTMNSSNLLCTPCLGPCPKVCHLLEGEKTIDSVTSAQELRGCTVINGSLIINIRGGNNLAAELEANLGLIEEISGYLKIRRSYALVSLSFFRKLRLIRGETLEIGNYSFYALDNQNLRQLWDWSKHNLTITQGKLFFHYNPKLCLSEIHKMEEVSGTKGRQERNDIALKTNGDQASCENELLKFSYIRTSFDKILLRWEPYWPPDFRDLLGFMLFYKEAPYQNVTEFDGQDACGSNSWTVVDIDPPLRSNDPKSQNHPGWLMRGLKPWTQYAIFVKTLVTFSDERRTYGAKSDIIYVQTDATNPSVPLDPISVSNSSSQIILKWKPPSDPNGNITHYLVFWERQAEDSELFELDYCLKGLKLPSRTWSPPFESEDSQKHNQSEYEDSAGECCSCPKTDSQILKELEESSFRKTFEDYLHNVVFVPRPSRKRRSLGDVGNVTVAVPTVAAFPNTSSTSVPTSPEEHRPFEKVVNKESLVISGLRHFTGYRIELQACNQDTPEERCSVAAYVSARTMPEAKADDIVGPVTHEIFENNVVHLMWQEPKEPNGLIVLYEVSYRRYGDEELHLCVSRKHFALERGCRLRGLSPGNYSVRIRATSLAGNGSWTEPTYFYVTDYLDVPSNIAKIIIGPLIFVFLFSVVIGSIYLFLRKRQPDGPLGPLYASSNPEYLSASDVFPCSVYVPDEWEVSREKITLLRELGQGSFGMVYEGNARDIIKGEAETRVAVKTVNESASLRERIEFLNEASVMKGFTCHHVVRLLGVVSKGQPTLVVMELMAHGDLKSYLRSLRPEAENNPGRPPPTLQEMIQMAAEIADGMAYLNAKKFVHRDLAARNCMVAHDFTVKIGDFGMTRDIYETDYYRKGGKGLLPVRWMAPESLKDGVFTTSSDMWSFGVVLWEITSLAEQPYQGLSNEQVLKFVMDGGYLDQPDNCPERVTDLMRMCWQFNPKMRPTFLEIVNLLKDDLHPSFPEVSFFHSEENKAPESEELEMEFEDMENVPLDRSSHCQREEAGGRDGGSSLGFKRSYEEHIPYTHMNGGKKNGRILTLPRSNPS
Method: (§1) INSR (insulin receptor) and IGF1R are both members of the superfamily of receptor tyrosine kinases (RTKs). The binding activity of anti-IGF1R antibodies to human IGF1R, human INSR and monkey IGF1R was verified by flow cytometry. Briefly, CHO-S-hIGF1R cells (expressing human IGF1R (SEQ ID NO: 45), CHO-S-fasIGF1R cells (expressing cynomolgus monkey IGF1R (SEQ ID NO: 46) and CHO-S-hINSR (expressing SEQ ID NO: 47) were plated in a 96-well plate at a density of 2×10⁵ cells/well respectively. Purified anti-IGF1R antibody with a concentration of 20 μg/mL was added to each well and was incubated at 4° C. for 30 minutes. Then, after one wash with PBS, the cells were incubated with the secondary antibody Alexa Fluor® 647 anti-human IgG Fcγ (Jackson ImmunoResearch Laboratories, Inc., Cat #: 109-606-170) at 4° C. for 15 minutes before flow cytometry analysis. Human IgG1 was used as ISO control.

[6] = target: T1, human IGF1R (insulin-like growth factor …); assay: flow cytometry on CHO-S-hIGF1R cells, antibody 20 µg/mL
Method: as §1

[7] = target: His-tagged cynomolgus monkey IGF1R protein (ACRO Biosystems Inc., Cat #: IGR-C5225) (cynomolgus monkey); assay: SPR (Biacore 8K), antibody captured on Protein A chip, antigen as analyte, 1:1 model
[8] = target: T3, His-tagged human IGF1R protein (ACRO Biosystems Inc., Cat #: IGR-H5229) (human, UniProt P08069 31-932); assay: as above
T3 construct: Bought protein; also called hIGF1R-His; not shown: His tag
T3 sequence (P08069 31-932): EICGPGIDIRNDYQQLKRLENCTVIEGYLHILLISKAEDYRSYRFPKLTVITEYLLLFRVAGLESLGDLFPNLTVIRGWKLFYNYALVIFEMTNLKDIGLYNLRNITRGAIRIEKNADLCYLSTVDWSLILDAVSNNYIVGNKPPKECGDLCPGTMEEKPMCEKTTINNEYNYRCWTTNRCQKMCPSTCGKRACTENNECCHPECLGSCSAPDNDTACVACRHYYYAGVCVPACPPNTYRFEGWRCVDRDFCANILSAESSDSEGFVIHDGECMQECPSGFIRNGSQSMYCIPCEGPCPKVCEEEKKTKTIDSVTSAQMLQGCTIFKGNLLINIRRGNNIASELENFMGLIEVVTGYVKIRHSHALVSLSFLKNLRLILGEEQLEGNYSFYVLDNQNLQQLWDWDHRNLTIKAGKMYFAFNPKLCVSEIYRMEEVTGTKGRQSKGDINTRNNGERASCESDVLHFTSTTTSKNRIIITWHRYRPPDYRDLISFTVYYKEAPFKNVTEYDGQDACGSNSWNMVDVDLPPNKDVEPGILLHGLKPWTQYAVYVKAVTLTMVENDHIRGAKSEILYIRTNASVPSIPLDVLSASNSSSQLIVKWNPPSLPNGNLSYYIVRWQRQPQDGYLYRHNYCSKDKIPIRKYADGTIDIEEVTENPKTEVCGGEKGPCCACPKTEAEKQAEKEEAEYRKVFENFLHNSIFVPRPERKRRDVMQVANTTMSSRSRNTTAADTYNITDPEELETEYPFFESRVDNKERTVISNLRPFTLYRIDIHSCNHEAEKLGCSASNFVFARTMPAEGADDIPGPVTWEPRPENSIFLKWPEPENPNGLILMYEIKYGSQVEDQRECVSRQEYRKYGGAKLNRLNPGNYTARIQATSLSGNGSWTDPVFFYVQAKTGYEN
Method: The affinity of the anti-IGF1R antibodies to His-tagged human IGF1R protein (hIGF1R-His, ACRO Biosystems Inc., Cat #: IGR-H5229) and His-tagged cynomolgus monkey IGF1R protein (cIGF1R-His, ACRO Biosystems Inc., Cat #: IGR-C5225) were measured using surface plasmon resonance (SPR) using Biacore™ (Biacore, Inc., Piscataway N.J.) 8K biosensor equipped with pre-immobilized Protein A sensor chips.
Purified anti-IGF1R antibodies were captured on the Protein A chip (Series S Sensor Chip Protein A) for the detection. 1 μg/mL or 10 μg/mL purified anti-IGF1R antibodies was loaded at 10 μL/min to bind to a gradient concentration of recombinant hIGF1R-His or cIGF1R-His (400 nM, 200 nM, 100 nM, 50 nM, 25 nM, 12.5 nM, 6.25 nM, 3.125 nM). The flow rate was 30 μL/min, the binding and dissociation time were set to 180 s and 800 s or 1200 s, respectively. The chip was regenerated after the last injection of each titration with a glycine solution (pH 2.0) at 30 μL/min for 30 seconds.

[9] = target: T3, His-tagged human IGF1R protein (ACRO …); assay: SPR (Biacore 8K) on captured hIGF1R-His, binder injected second (Analyte 2); competitor injected first (Analyte 1): 10G1
Method: (§2) Epitope binding assays were performed using Biacore™ 8K biosensor to determine whether two anti-IGF1R antibodies target the same or overlapping epitopes. 1×HBS-EP+ buffer (10 mM 4-(2-hydroxyethyl)-1-piperazineethanesulfonic acid (HEPES), 150 mM NaCl, 3 mM ethylenediaminetetraacetic acid (EDTA) and 0.05% P20, pH7.4) diluted from HBS-EP+buffer (10×) was used as the running buffer throughout the experiment. About 50 RU of hIGF1R-His was captured at a flow rate of 10 μL/min, and 200 nM of the tested antibody (Analyte 1) was injected at a flow rate of 30 uL/min to bind the ligand. Another comparison antibody (Analyte 2) was injected under the same conditions to determine whether the binding of different antibodies interfered with each other. The binding time was 180 s for each antibody.
(§3) The binding value of each antibody was obtained using Biacore Insight Evaluation (Version: 2.0.15.12933). To quantify the interference of one antibody binding to another, a binding ratio was calculated to compare each pair of antibodies. The binding ratio is defined as the binding value of the second antibody (Analyte 2) divided by the binding value of the first antibody (Analyte 1). The threshold to determine the block or non-block is 0.3.

[10] = target: T3, His-tagged human IGF1R protein (ACRO …); assay: SPR (Biacore 8K) on captured hIGF1R-His, binder injected second (Analyte 2); competitor injected first (Analyte 1): 12A4
Method: as §2, §3

[11] = target: T3, His-tagged human IGF1R protein (ACRO …); assay: SPR (Biacore 8K) on captured hIGF1R-His, binder injected second (Analyte 2); competitor injected first (Analyte 1): 12D1
Method: as §2, §3

[12] = target: T3, His-tagged human IGF1R protein (ACRO …); assay: SPR (Biacore 8K) on captured hIGF1R-His, binder injected second (Analyte 2); competitor injected first (Analyte 1): Teprotumumab analog
Method: as §2, §3

T1 sequence (P08069 31-1367 limits assumed): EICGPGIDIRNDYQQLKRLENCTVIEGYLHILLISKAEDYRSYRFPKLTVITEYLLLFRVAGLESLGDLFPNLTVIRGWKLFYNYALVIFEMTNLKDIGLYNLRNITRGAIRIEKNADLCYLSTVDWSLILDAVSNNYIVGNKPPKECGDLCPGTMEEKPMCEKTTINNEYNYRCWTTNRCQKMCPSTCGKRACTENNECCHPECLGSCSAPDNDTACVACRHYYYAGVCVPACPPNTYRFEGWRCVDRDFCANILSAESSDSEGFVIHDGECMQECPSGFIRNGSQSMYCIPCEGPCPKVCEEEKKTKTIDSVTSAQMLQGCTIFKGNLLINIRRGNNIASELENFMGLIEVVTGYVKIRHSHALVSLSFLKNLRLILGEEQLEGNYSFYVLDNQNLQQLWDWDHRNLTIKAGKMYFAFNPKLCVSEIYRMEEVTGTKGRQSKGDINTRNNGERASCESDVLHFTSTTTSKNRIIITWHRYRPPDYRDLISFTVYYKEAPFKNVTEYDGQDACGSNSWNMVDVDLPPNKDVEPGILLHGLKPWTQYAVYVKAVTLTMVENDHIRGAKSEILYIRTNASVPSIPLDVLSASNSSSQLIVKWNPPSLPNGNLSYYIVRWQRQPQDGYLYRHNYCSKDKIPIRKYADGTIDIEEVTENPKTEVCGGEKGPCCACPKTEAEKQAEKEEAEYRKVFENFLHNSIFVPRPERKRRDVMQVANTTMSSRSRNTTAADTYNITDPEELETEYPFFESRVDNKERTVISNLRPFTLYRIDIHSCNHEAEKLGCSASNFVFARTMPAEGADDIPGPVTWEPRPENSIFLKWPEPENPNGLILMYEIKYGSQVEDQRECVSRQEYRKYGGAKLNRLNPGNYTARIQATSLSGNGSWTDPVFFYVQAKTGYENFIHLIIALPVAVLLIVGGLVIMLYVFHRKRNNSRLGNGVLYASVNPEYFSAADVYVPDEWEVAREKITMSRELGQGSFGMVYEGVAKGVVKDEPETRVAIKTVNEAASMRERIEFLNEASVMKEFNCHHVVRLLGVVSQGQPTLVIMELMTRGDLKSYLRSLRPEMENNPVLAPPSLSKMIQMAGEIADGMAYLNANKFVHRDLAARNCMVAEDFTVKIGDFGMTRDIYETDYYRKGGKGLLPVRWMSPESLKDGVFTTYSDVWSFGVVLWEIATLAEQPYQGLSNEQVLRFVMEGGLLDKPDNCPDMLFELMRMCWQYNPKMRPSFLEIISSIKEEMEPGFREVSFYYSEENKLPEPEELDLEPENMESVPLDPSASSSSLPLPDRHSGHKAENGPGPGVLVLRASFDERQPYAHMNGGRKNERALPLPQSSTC

B3: anti-IGF1R antibody 12D1 (antibody, human IgG1, V domains shown)
VH: QVQLVESGGGVVRPGGSLRLSCAASGFTFDDYGMSWVRQVPGKGLEWVSGINWNGGSTDYADSVKGRFTISREKAKNSLYLQMNSLRAEDTALYYCVRDRGAVTRRYYYYGMDVWGQGTTVTVSS
VL: DIQMTQSPSSLSASVGDRVTITCRASQDIRNDLGWYQLKPGKAPKRLIYAASRLQSGVPSRFSGSGSGTEFTLTISSLQPEDFATYYCLQHNSYPYTFGQGTKLEIK
- EC50 of internalization (MFI of pHAb-labelled secondary Fab, NCI-H838 cells) [1]: 0.66 nM
- IC50 of inhibition of IGF-1-induced proliferation (NCI-H838 cells) [2]: 0.064 nM
- Max inhibition (%) (10 µg/mL) of IGF-1-induced proliferation (NCI-H838 cells) [2]: 145%
- IC50 of inhibition of IGF1R phosphorylation (CHO-S-hIGF1R cells, IGF-1 added, phosphotyrosine IGF1R ELISA) [3]: 1.3 nM
- IC50 of inhibition of IGF-1-induced OPN secretion (U2OS-TSHR cells) [4]: 0.096 nM
- binding result [5]: no binding (tested: 20 µg/mL)
- Percentage of positive cells [6]: 39.3%
- Kd [7]: 2.79 nM
- koff [7]: 1.8e-05 s⁻¹
- kon [7]: 6450 M⁻¹ s⁻¹
- Kd [8]: 1.72 nM
- koff [8]: 1.05e-05 s⁻¹
- kon [8]: 6120 M⁻¹ s⁻¹
- binding ratio (Analyte 2 / Analyte 1) [9]: 0
- binding ratio (Analyte 2 / Analyte 1) [10]: 0
- binding ratio (Analyte 2 / Analyte 1) [11]: -0.01
- binding ratio (Analyte 2 / Analyte 1) [12]: 0.01

B4: anti-IGF1R antibody 10G1 (antibody, human IgG1, V domains shown)
VH: QVQLVESGGGLVKPGGSLRLSCAASEFTFSDYYMSWIRQSPGKGLEWVSYISNSGSFTNYADSVKGRFTISRDNAKNSLYLQMNSLRAEDSAIYYCVRDQAPVTSKYYYYGMDVWGQGTTVTVSS
VL: B3 VL with D1E, Q3V, M4L, D28G, L33F, G34A, L38Q, S56R
- EC50 of internalization (MFI of pHAb-labelled secondary Fab, NCI-H838 cells) [1]: 1.12 nM
- IC50 of inhibition of IGF-1-induced proliferation (NCI-H838 cells) [2]: 0.091 nM
- Max inhibition (%) (10 µg/mL) of IGF-1-induced proliferation (NCI-H838 cells) [2]: 88%
- IC50 of inhibition of IGF1R phosphorylation (CHO-S-hIGF1R cells, IGF-1 added, phosphotyrosine IGF1R ELISA) [3]: 1.2 nM
- IC50 of inhibition of IGF-1-induced OPN secretion (U2OS-TSHR cells) [4]: 0.13 nM
- binding result [5]: no binding (tested: 20 µg/mL)
- Percentage of positive cells [6]: 46.4%
- Kd [7]: 8.57 nM
- koff [7]: 0.000237 s⁻¹
- kon [7]: 27600 M⁻¹ s⁻¹
- Kd [8]: 3.99 nM
- koff [8]: 0.000162 s⁻¹
- kon [8]: 40700 M⁻¹ s⁻¹
- binding ratio (Analyte 2 / Analyte 1) [9]: -0.01
- binding ratio (Analyte 2 / Analyte 1) [10]: -0.03
- binding ratio (Analyte 2 / Analyte 1) [11]: -0.02
- binding ratio (Analyte 2 / Analyte 1) [12]: -0.03

Stronger by Kd [7], values ahead:

- EC50 of internalization (MFI of pHAb-labelled secondary Fab, NCI-H838 cells) [1]: 0.51 nM
- IC50 of inhibition of IGF-1-induced proliferation (NCI-H838 cells) [2]: 0.14 nM
- Max inhibition (%) (10 µg/mL) of IGF-1-induced proliferation (NCI-H838 cells) [2]: 117%
- IC50 of inhibition of IGF1R phosphorylation (CHO-S-hIGF1R cells, IGF-1 added, phosphotyrosine IGF1R ELISA) [3]: 1.4 nM
- IC50 of inhibition of IGF-1-induced OPN secretion (U2OS-TSHR cells) [4]: 0.046 nM
- binding result [5]: no binding (tested: 20 µg/mL)
- Percentage of positive cells [6]: 36.5%
- Kd [7]: 2.1 nM
- koff [7]: 1.75e-05 s⁻¹
- kon [7]: 8360 M⁻¹ s⁻¹
- Kd [8]: 1.63 nM
- koff [8]: 1.26e-05 s⁻¹
- kon [8]: 7750 M⁻¹ s⁻¹
- binding ratio (Analyte 2 / Analyte 1) [9]: 0.02
- binding ratio (Analyte 2 / Analyte 1) [10]: 0.02
- binding ratio (Analyte 2 / Analyte 1) [11]: 0.02
- binding ratio (Analyte 2 / Analyte 1) [12]: 0.03
B2: anti-IGF1R antibody 10D1 (antibody, human IgG1, V domains shown)
VH: B3 VH with V5Q, E6Q, D30A, E73D, K74N, N77H, L93F, V97A, T104S, Q117L
VL: B3 VL with D1A, M4L, R61G

- EC50 of internalization (MFI of pHAb-labelled secondary Fab, NCI-H838 cells) [1]: 0.92 nM
- IC50 of inhibition of IGF-1-induced proliferation (NCI-H838 cells) [2]: 0.045 nM
- Max inhibition (%) (10 µg/mL) of IGF-1-induced proliferation (NCI-H838 cells) [2]: 105%
- IC50 of inhibition of IGF1R phosphorylation (CHO-S-hIGF1R cells, IGF-1 added, phosphotyrosine IGF1R ELISA) [3]: 0.9 nM
- IC50 of inhibition of IGF-1-induced OPN secretion (U2OS-TSHR cells) [4]: 0.068 nM
- binding result [5]: no binding (tested: 20 µg/mL)
- Percentage of positive cells [6]: 50.3%
- Kd [7]: 0.568 nM
- koff [7]: 1.05e-05 s⁻¹
- kon [7]: 18400 M⁻¹ s⁻¹
- Kd [8]: 0.214 nM
- koff [8]: 5.69e-06 s⁻¹
- kon [8]: 26600 M⁻¹ s⁻¹
- binding ratio (Analyte 2 / Analyte 1) [9]: -0.01
- binding ratio (Analyte 2 / Analyte 1) [10]: -0.01
- binding ratio (Analyte 2 / Analyte 1) [11]: -0.02
- binding ratio (Analyte 2 / Analyte 1) [12]: 0.01
B1: anti-IGF1R antibody 12A4 (antibody, V domains shown)
VH: EVQLVQSGGGEIRPGGSLRLSCAASGFTFADYGMSWVRQAPGEGLEWVSEIDWTGGSKLYADSVKGRFTISRDNAKNSLFLQMNSLRAEDTALYYCVRDRGAVSPKYYYYGMDVWGQGTTVTVSS
VL: B3 VL with D1E, Q3V, M4L, D28G, L38Q, E70D
